Data taken from patent publication US20250339501A1, “COMPOSITIONS AND METHODS FOR TREATING METABOLIC DISEASE” (The Regents of the University of California, priority 2021, published 2025).

What was measured:
mitochondrial complex I = assay: Complex I activity of isolated liver mitochondria from treated HFD-fed mice; format: in vivo, mouse
AML12 cells = assay: Fluorescent-labeled rDj1 binding to plasma membrane of liver cells; format: cell-based, mouse; settings: Alex 488-labeled rDj1 added to medium, fluorescent microscopy
Procedure: Myokines contribute to whole-body metabolism by directly signaling to distant organs (15-18). To determine which organs Dj1 targets, WT mice were tail-vein injected with a recombinant Dj1 (rDj1) protein labeled with the near-infrared fluorescent dye IRDye 800CW, and the fluorescent signals were tracked using an optical imaging system (FIGS. 3I, 3J). A robust fluorescent signal could be detected within 5 minutes post-injection. […] Considering that the reagents injected through tail-vein often nonspecifically target the liver, fluorescent-labeled rDj1 was used to determine whether Dj1 could bind to the plasma membrane of liver cells. rDj1 was labeled with Alex 488 and added into the medium of mouse liver cells (AML12 cells) at the indicated time.

HepG2 cells = assay: Fatty acid oxidation and lipid content in HepG2 cells; format: cell-based, human
Procedure: Mouse myoblast cells (C2C12) were maintained in high glucose DMEM/high, 10% fetal bovine serum with penicillin/streptomycin. pRK5-Dj1-HA plasmid was purchased from Addgene (#29396). Seeded cells were cultured in 6-well plates for 24 hours prior to transfection. Transfections were performed using Lipofectamine 2000 and PLUS reagent according to manufacturer instructions (Invitrogen, Carlsbad, CA). Human HepG2 cells were cultured in DMEM/low media containing 10% fetal bovine serum with penicillin/streptomycin. Mouse AML12 cells were maintained in DMEM/F12, ITS supplement (Gibco, USA), 40 ng/ml dexamethasone, and 10% fetal bovine serum with penicillin/streptomycin. For in vitro experiments, HepG2 cells were treated with or without recombinant human Dj1 protein (Novus, NBC1-18334) in serum-free media containing 25 mM glucose, 200 μM palmitic acid, and 0.25% bovine serum albumin for an indicated time.
AMPK signaling is vital for lipid metabolism in the liver (19). […] These findings indicate that Dj1 could enhance lipid metabolism and ameliorate HFD-induced hepatic steatosis. rDj1 was tail-vein injected into mice fed with a chow diet (NC) or high-fat diet (HFD) daily for 5 days. […] Although body weights and fasting blood glucose levels of HFD-fed mice were unchanged during the rDj1 administration, rDj1 indeed enhanced glucose homeostasis and insulin action, as evidenced by improving glucose tolerance tests and insulin tolerance tests, respectively (FIGS. 4K-4M, 4U-4Z).

NC-fed C57BL/6J mice = assay: rDj1 tail-vein injection daily for 5 days in NC-fed mice; format: in vivo, mouse; settings: 0.15 mg/kg/day IV for 5 days
Procedure: C57BL/10cSn-Dmd^mdx/J (001801, mdx) and C57BL/10ScSnJ (000476, WT) mice were ordered directly from The Jackson Laboratory. Different ages of mdx and WT mice were obtained. Animals were weaned 21 days after birth and had free access to food and water and were housed on 12 h light-dark cycle. C57BL/6J males were introduced to a normal diet (NC, Research Diets D15100601) or high-fat diet (HFD, Research Diets D12331), and maintained on a diet for the indicated time. The HFD diet derives 58% of its kilocalories (kcal) from fat (soybean and coconut oil), 25.5% from carbohydrates (sucrose and maltodextrin), and 16.4% from protein (casein). NASH model mice were fed for up to 28 weeks with the NASH diet (Envigo, TD.120528) and 42% fructose (Sigma, F0127) in the water (1,2). The NASH diet is composed of 405.36 g/Kg sucrose and 12.5 g/Kg cholesterol. Recombinant mouse Dj1 protein (Novus, NBP2-59523) or truncated mouse Dj1 (tDj1, GenScript) protein was intravenously injected every day for 5 days or every other day for 2 weeks. Skeletal muscle-specific Park7 knockout mice were generated by crossing Park7 flox mice with Myl1-cre mice (JAX, #024713). Mice were raised in microisolator cages with a 12 h: 12 h light: dark cycle. […]
Plasma and liver NEFA, Cholesterol, and Triglyceride were analyzed by their respective kits (FUJIFILM Wako Diagnostics) […]

B1: rDj1: full-length recombinant Dj1 protein; mouse protein (Novus, NBP2-59523) injected in mice, human protein used in HepG2 cells (protein, UniProt Q99LX0 1-189, looked up)
chain: MASKRALVILAKGAEEMETVIPVDVMRRAGIKVTVAGLAGKDPVQCSRDVMICPDTSLEDAKTQGPYDVVVLPGGNLGAQNLSESPMVKEILKEQESRKGLIAAICAGPTALLAHEVGFGCKVTTHPLAKDKMMNGSHYSYSESRVEKDGLILTSRGPGTSFEFALAIVEALVGKDMANQVKAPLVLKD
modifications: full-length
notes: full-length recombinant Dj1 protein; mouse protein (Novus, NBP2-59523) injected in mice, human protein used in HepG2 cells
mitochondrial complex I activity (mitochondrial complex I): Enhanced
localization of labeled rDj1 on liver cells (AML12 cells): colocalized with the plasma membrane
Oil Red O staining (neutral lipids) (HepG2 cells): reduced
fatty acid oxidation (HepG2 cells): significantly promoted
triacylglycerol (TG) levels (HepG2 cells): reduced
plasma cholesterol levels (NC-fed C57BL/6J mice): significantly reduced
plasma non-esterified fatty acids (NEFA) (NC-fed C57BL/6J mice): significantly reduced
